Data on three molecules can be found in article PMC10696396 (2023).

The chains are these.
B1: His6-SUMO-HilE (natural protein)
chain: MDAIYLKLDGIEGESRIKGFENQIKLIAYNHNPTKRESGEARGTYIGGLTLTKPVDLATPGLYEHYCNGKTVKEGVLTLCRRDKGAMLPFIIYTLTNVRISRMSNHGDAEGSATETVDLVYSHIRWDIPALASKSKTRRPLHRQALWR
modifications: RED-tris-NTA 2nd Generation dye bound to the His6 tag

Holding throughout (assay): MST
One assay has as its target HilD S216I/S218D.
In another assay the target is HilD K279M.
For assay [1], the target named is EYFP-HilD E102A/K264A/R267A.
The target of the assay “His6-SUMO-HilE” is B1.

In general, Kd refers to the concentration at which binding is half-saturated. In the case of B1, the values for the Kd with HilD S216I/S218D and with HilD K279M were 1160 nM and 2120 nM, respectively.

B2: HilE (natural protein)
chain: MDAIYLKLDGIEGESRIKGFENQIKLIAYNHNPTKRESGEARGTYIGGLTLTKPVDLATPGLYEHYCNGKTVKEGVLTLCRRDKGAMLPFIIYTLTNVRISRMSNHGDAEGSATETVDLVYSHIRWDIPALASKSKTRRPLHRQALWR
For B2, binding in assay [1] was put at a Kd of 1680 nM.

B3: HilD (full-length, unfused) (natural protein)
chain: MENVTFVSNSHQRPAADNLQKLKSLLTNTRQQIKSQTQQVTIKNLYVSSFTLVCFRSGKLTISNNHDTIYCDEPGMLVLKKEQVVNVTLEEVNGHMDFDILEIPTQRLGALYALIPNEQQTKMAVPTEKAQKIFYTPDFPARREVFEHLKTAFSCTKDTSKGCSNCNNKSCIENEELIPYFLLFLLTAFLRLPESYEIILSSAQITLKERVYNIISSSPSRQWKLTDVADHIFMSTSTLKRKLAEEGTSFSDIYLSARMNQAAKLLRIGNHNVNAVALKCGYDSTSYFIQCFKKYFKTTPSTFIKMANH
In the case of B3, the affinity with His6-SUMO-HilE, expressed as Kd, was 1890 nM. In other words, the single-digit micromolar range.
